Laboratory results taken from patent US20230192896A1 (published 2023).

Molecular target: free FIXa (activated Factor IX) (UniProt P00740 47-191; P00740 227-461)
Experiment: BLI

Row | Kd [nM] | Binder
1 | 16.4 | BIIB-9-433 (antibody, V domains shown) VH: QLQLQESGPGLVKPSETLSLTCTVSGGSISSSRYYWGWIRQPPGKGLEWIGSIYYSGSTYYNPSLKSRVTISVDTSKNQFSLKLSSVTAADTAVYYCARDAGYSAELFDYWGQGTLVTVSS VL: EIVLTQSPATLSLSPGERATLSCRASQSVSSYLAWYQQKPGQAPRLLIYDASNRATGIPARFSGSGSGTDFTLTISSLEPEDFAVYYCQQSSAYPPTFGGGTKVEIK
2 | 19.6 | BIIB-9-470 (antibody, V domains shown) VH: EVQLVESGGGLVQPGGSLRLSCAASGFTFSSYWMSWVRQAPGKGLEWVANIKQDGSEKYYVDSVKGRFTISRDNAKNSLYLQMNSLRAEDTAVYYCARDAGIAWALDYWGQGTLVTVS VL: DIQMTQSPSTLSASVGDRVTITCRASQSISSWLAWYQQKPGKAPKLLIYKASSLESGVPSRFSGSGSGTEFTLTISSLQPDDFATYYCQHPHSWTFGGGTKVEIK
3 | 14.2 | BIIB-9-582 (antibody, V domains shown) VH: QVQLVQSGAEVKKPGASVKVSCKASGYTFTSYYMVWVRQAPGQGLEWMGIINPSGGSTSYAQKFQGRVTMTRDTSTSTVYMELSSLRSEDTAVYYCARAPTYFYSYGMDVWGQGTTVTVSS VL: not shown
4 | 37.7 | BIIB-9-484 (antibody, V domains shown) VH: EVQLVESGGGLVKPGGSLRLSCAASGFTFSSYSMNWVRQAPGKGLEWVSSISSSSSYIYYADSVKGRFTISRDNAKNSLYLQMNSLRAEDTAVYYCARDVGGYAGYYGMDVWGQGTTVTVSS VL: not shown
5 | 44.5 | BIIB-9-1271 (antibody, V domains shown) VH: QVQLVQSGAEVKKPGASVKVSCKASGYTFTSYYMHWVRQAPGQGLEWMGIINPSGGSTSYAQKFQGRVTMTRDTSTSTVYMELSSLRSEDTAVYYCARDTGGYAFDIWGQGTLVTVSS VL: EIVMTQSPATLSVSPGERATLSCRASQSVSSNLAWYQQKPGQAPRLLIYGASTRATGIPARFSGSGSGTDFTLTISSLQPEDFATYYCQQGFSFPFTFGGGTKVEIK
6 | 5.93 | BIIB-9-475 (antibody, V domains shown) VH: QVQLQESGPGLVKPSETLSLTCTVSGGSISSYYWSWIRQPPGKGLEWIGSIYYSGSTNYNPSLKSRVTISVDTSKNQFSLKLSSVTAADTAVYYCARDVGGYDYGVGAFDIWGQGTMVTVSS VL: DIQMTQSPSSLSASVGDRVTITCQASQDITNYLNWYQQKPGKAPKLLIYDASNLETGVPSRFSGSGSGTDFTFTISSLQPEDIATYYCQQSSNFPLTFGGGTKVEIK
7 | 4.89 | BIIB-9-397 (antibody, V domains shown) VH: QVQLQESGPGLVKPSETLSLTCAVSGYSISSGYYWAWIRQPPGKGLEWIGSIYHSGSTYYNPSLKSRVTISVDTSKNQFSLKLSSVTAADTAVYYCARDVWYVGGFDPWGQGTLVTVSS VL: DIQMTQSPSSLSASVGDRVTITCQASQDISNYLNWYQQKPGKAPKLLIYDASNLETGVPSRFSGSGSGTDFTFTISSLQPEDIATYYCQQSDDHPPTFGGGTKVEIK
8 | 5.5 | BIIB-9-568 (antibody, V domains shown) VH: QLQLQESGPGLVKPSETLSLTCTVSGGSISSSSYYWGWIRQPPGKGLEWIGSIYYSGSTYYNPSLKSRVTISVDTSKNQFSLKLSSVTAADTAVYYCARDLGYAATYFDLWGRGTLVTVSS VL: DIQMTQSPSSLSASVGDRVTITCQASQDISNYLNWYQQKPGKAPKLLIYDASNLETGVPSRFSGSGSGTDFTFTISSLQPEDIATYYCQQYDDYLTFGGGTKVEIK
9 | 17.4 | BIIB-9-564 (antibody, V domains shown) VH: QVQLQESGPGLVKPSETLSLTCAVSGYSISSGYYWAWIRQPPGKGLEWIGSIYHSGSTYYNPSLKSRVTISVDTSKNQFSLKLSSVTAADTAVYYCARDPGYSWEYFDYWGQGTLVTVSS VL: DIQMTQSPSSLSASVGDRVTITCRASQSISSYLNWYQQKPGKAPKLLIYAASSLQSGVPSRFSGSGSGTDFTLTISSLQPEDFATYYCQQSVAVPPTFGGGTKVEIK
10 | 4.91 | BIIB-9-578 (antibody, V domains shown) VH: QLQLQESGPGLVKPSETLSLTCTVSGGSISSSSYYWGWIRQPPGKGLEWIGSISYSGSTYYNPSLKSRVTISVDTSKNQFSLKLSSVTAADTAVYYCARDKYQDYSFDIWGQGTMVTVSS VL: DIQMTQSPSSVSASVGDRVTITCRASQGIDSWLAWYQQKPGKAPKLLIYAASSLQSGVPSRFSGSGSGTDFTLTISSLQPEDFATYYCQQANFLPFTFGGGTKVEIK
11 | 18 | BIIB-9-622 (antibody, V domains shown) VH: QVQLVQSGAEVKKPGASVKVSCKASGYTFTSYYMHWVRQAPGQGLEWMGIINPSGGSTSYAQKFQGRVTMTRDTSTSTVYMELSSLRSEDTAVYYCARDGATTVSYLSFDIWGQGTMVTVSS VL: EIVMTQSPATLSVSPGERATLSCRASQSVSSSLAWYQQKPGQAPRLLIYGASTRATGIPARFSGSGSGTEFTLTISSLQSEDFAVYYCQQHSTWPPTFGGGTKVEIK
12 | 8.63 | BIIB-9-477 (antibody, V domains shown) VH: EVQLLESGGGLVQPGGSLRLSCAASGFTFSNYAMSWVRQAPGKGLEWVSAISGSGGSTYYADSVKGRFTISRDNSKNTLYLQMNSLRAEDTAVYYCARGGVYSSSWMRFWGQGTLVTVSS VL: EIVMTQSPATLSVSPGERATLSCRASQSVSSSLAWYQQKPGQAPRLLIFGASTRATGIPARFSGSGSGTEFTLTISSLQSEDFAVYYCQQDVNWPITFGGGTKVEIK
13 | 11.4 | BIIB-9-608 (antibody, V domains shown) VH: QLQLQESGPGLVKPSETLSLTCTVSGGSISSSSYYWGWIRQPPGKGLEWIGSIYYSGSTYYNPSLKSRVTISVDTSKNQFSLKLSSVTAADTAVYYCARDRLETSEAGMDVWGQGTTVTVSS VL: not shown
14 | 32.4 | BIIB-9-1276 (antibody, V domains shown) VH: QLQLQESGPGLVKPSETLSLTCTVSGGSISSSSYYWGWIRQPPGKGLEWIGSIYYSGSTYYNPSLKSRVTISVDTSKNQFSLKLSSVTAADTAVYYCARDVGRTYELFDIWGQGTMVTVSS VL: DIQMTQSPSSVSASVGDRVTITCRASQGISSWLAWYQQKPGKAPKLLIYAASSLQSGVPSRFSGSGSGTDFTLTISSLQPEDFATYYCQQGNSFPITFGGGTKVEIK
15 | 60.2 | BIIB-9-1285 (antibody, V domains shown) VH: QVQLVQSGAEVKKPGASVKVSCKASGYTFTSYYMVWVRQAPGQGLEWMGIINPSGGSTSYAQKFQGRVTMTRDTSTSTVYMELSSLRSEDTAVYYCARVPTYRYSYLAFDIWGQGTMVTVSS VL: EIVMTQSPATLSVSPGERATLSCRASQSVSSNLAWYQQKPGQAPRLLIYGASTRATGIPARFSGSGSGTEFTLTISSLQSEDFAVYYCQQASNFPPTFGGGTKVEIK
16 | 1.1 | BIIB-9-558 (antibody, V domains shown) VH: EVQLVESGGGLVKPGGSLRLSCAASGFTFSSYSMNWVRQAPGKGLEWVSSISSSSSYIYYADSVKGRFTISRDNAKNSLYLQMNSLRAEDTAVYYCARSYGYGYHDFDLWGRGTLVTVSS VL: DIQMTQSPSTLSASVGDRVTITCRASQSIGSWLAWYQQKPGKAPKLLIYKASSLESGVPSRFSGSGSGTEFTLTISSLQPDDFATYYCQQAGSYSFTFGGGTKVEIK
17 | 9.11 | BIIB-9-471 (antibody, V domains shown) VH: QVQLQESGPGLVKPSQTLSLTCTVSGGSISSGGYYWSWIRQHPGKGLEWIGYIYYSGSTYYNPSLKSRVTISVDTSKNQFSLKLSSVTAADTAVYYCARSGVSGSGSDNWFDPWGQGTTVTVSS VL: EIVLTQSPATLSLSPGERATLSCRASQSVSRYLAWYQQKPGQAPRLLIYDASNRATGIPARFSGSGSGTDFTLTISSLEPEDFAVYYCQQDYNYPFTFGGGTKVEIK
